Measured values published in PMC9646512.

Experiments:
Details in all cases: all L-DNA (mirror image); ITC: 20 mM HEPES-NaOH, 150 mM NaCl, 5 mM KCl, 2 mM MgCl2, 1 mM CaCl2, pH 7.4, 25 C; EMSA: same plus 0.05% Tween 20 and 10% glycerol, room temperature 30 min …
[1] = target: T1, native human alpha-thrombin (Homo sapiens) (UniProt P00734+P00734); assay: EMSA
[2] = target: native bovine alpha-thrombin (Bos taurus (bovine)) (UniProt P00735+P00735); assay: ITC
[3] = target: T1, native human alpha-thrombin (Homo sapiens); assay: ITC
[4] = target: T1, native human alpha-thrombin (Homo sapiens); assay: thrombin activity inhibition

## ACGGAACGCGTTTCAAGACTACCGTGTTTGTTCCGT [Cy5-L-9-1t aptamer]
[1]
  Kd: 21 nM

## ACGGAACGCGTTTCAAGACTACCGTGTTTGTTCCGT [L-9-1t aptamer]
[2]
  Kd: 1030 nM
[3]
  Kd: 39 nM

## CGGATCCAGTTACGGAACGCGTTTCAAGACTACCGTGTTTGTTCCGTTCATTCAGTAAGCTTCGG [L-9-1 aptamer]
[3]
  Kd: 29 nM

## CGGATCCAGTTACGGATGAACTTGTTGAAACCCAACGGGAGAATCGTTCATTCAGTAAGCTTCGG [L-9-2 aptamer]
[3]
  Kd: 168 nM
[4]
  IC50: 317 nM

## CGGATCCAGTTACGGATGAACTTGTTGAAACCCAACGGGAGCCTCGTTCATTCAGTAAGCTTCGGTGG [L-13 aptamer]
[3]
  Kd: 22 nM
[4]
  IC50: 27 nM

## GATGAACTTGTTGAAACCCAACGGGAGAATCGTTCATT [Cy5-L-9-2t aptamer]
[1]
  Kd: 355 nM

## GATGAACTTGTTGAAACCCAACGGGAGAATCGTTCATT [L-9-2t aptamer]
[2]
  Kd: 426 nM
[3]
  Kd: 251 nM
[4]
  IC50: 479 nM

## GATGAACTTGTTGAAACCCAACGGGAGCCTCGTTCATT [Cy5-L-13t aptamer]
[1]
  Kd: 28 nM

## GATGAACTTGTTGAAACCCAACGGGAGCCTCGTTCATT [L-13t aptamer]
[2]
  Kd: 340 nM
[3]
  Kd: 34 nM
[4]
  IC50: 46 nM

## GGAACGCGTTTCAAGACTACCGTGTTTGTTCC [L-9-1t' aptamer]
[3]
  Kd: 111 nM
